Laboratory results as given in publication PMC12562681, “Targeting a Tau Kinase Cdk5, Cyclin-Dependent Kinase: A Blood-Based Diagnostic Marker and Therapeutic Earmark for Alzheimer’s Disease” (Biomolecules, 2025).

Tests used:
[1] = biological target: recombinant human Cdk5 (Cyclin-Dependent Kinase 5) (human) (UniProt Q00535)
[2] = biological target: recombinant human Cdk5 (Cyclin-Dependent Kinase 5) (human) (UniProt Q00535); assay: SPR; recombinant Cdk5 immobilised on a Ni-NTA sensor chip (NiCl2 solution, then the protein); peptide YCWS passed over at 0.4, 0.6 and 1 µM; KA and KD calculated with BIA evaluation 3.0 software

Kd [2]: 3.94 nM
Substance: peptide YCWS
cell viability (MTT) of differentiated SH-SY5Y cells treated with 20 µM aggregated Aβ25–35 together with YCWS at 2, 5, 10, 15 and 20 µM (77.65% without the peptide) [1]: 98.5%
